We go through three molecules from PMC8142856 (Cell, 2021).

B1: SARS-CoV-2 nsp14 (enzyme)
chain: AENVTGLFKDCSKVITGLHPTQAPTHLSVDTKFKTEGLCVDIPGIPKDMTYRRLISMMGFKMNYQVNGYPNMFITREEAIRHVRAWIGFDVEGCHATREAVGTNLPLQLGFSTGVNLVAVPTGYVDTPNNTDFSRVSAKPPPGDQFKHLIPLMYKGLPWNVVRIKIVQMLSDTLKNLSDRVVFVLWAHGFELTSMKYFVKIGPERTCCLCDRRATCFSTASDTYACWHHSIGFDYVYNPFMIDVQQWGFTGNLQSNHDLYCQVHGNAHVASCDAIMTRCLAVHECFVKRVDWTIEYPIIGDELKINAACRKVQHMVVKAALLADKFPVLHDIGNPKAIKCVPQADVEWKFYDAQPCSDKAYKIEELFYSYATHSDKFTDGVCLFWNCNVDRYPANSIVCRFDTRVLSNLNLPGCDGGSLYVNKHAFHTPAFDKSAFVNLKQLPFFYYSDSPCESHGKQVVSDIDYVPLKSATCITRCNLGGAVCRHHANEYRLYLDAYNMMISAGFSLWVYKQFDTYNLWNTFTRLQ
B2: template-primer RNA (dsRNA)
RNA 1: CAUGCCAUGGCCUCUAAAAUGUCAGCUGCUCCCUAGCAUGCUACUACCGCGUAGCAUG
RNA 2: GCGGUAGUAGCAUGCUAGGGAGCAG
B3: nsp9-nsp10 fusion protein (other)
chain: NNELSPVALRQMSCAAGTTQTACTDDNALAYYNTTKGGRFVLALLSDLQDLKWARFPKSDGTGTIYTELEPPCRFVTDTPKGPKVKYLYFIKGLNNLNRGMVLGSLAATVRLQAGNATEVPANSTVLSFCAFAVDAAKAYKDYLASGGQPITNCVKMLCTHTGTGQAITVTPEANMDQESFGGASCCLYCRCHIDHPNPKGFCDLKGKYVQIPTTCANDPVGFTLKNTVCTVCGMWKGYGCSCDQLREPMLQ

For one data set, the target named is SARS-CoV-2 nsp12 (SARS-CoV-2, UniProt P0DTD1). The experiment in a line: cryo-EM structure.
Another data set concerns the target SARS-CoV-2 nsp13 (SARS-CoV-2, UniProt P0DTD1 5325-5925). The data set can be described thus: cryo-EM structure.
The data set “nsp12 (RdRp with …)” has as its target nsp12 (RdRp with NiRAN);nsp7;nsp8;nsp9;nsp13 helicase;nsp10;nsp14 (ExoN / N7-MTase) (SARS-CoV-2;SARS-CoV-2;SARS-CoV-2;SARS-Co …, UniProt P0DTD1;P0DTD1;P0DTD1;P0DTD1;P0DTD1;P0DTD1;P0DTD1 …, ||||||). The experiment in a line: cryo-EM structure.
The data set “SARS-CoV-2 nsp14” addresses B1. The data set can be described thus: SEC. Background: In gel filtration, larger molecules generally elute earlier.

Consider B1, for which the binding result with SARS-CoV-2 nsp12 and in the data set with SARS-CoV-2 nsp13 was “binds” throughout.

For the molecule B2, in the data set with nsp12 (RdRp with …), the binding result is listed as “binds”.

Take B3: the binding result with SARS-CoV-2 nsp14 and in the data set with SARS-CoV-2 nsp12 was “binds” each time.
